These results are taken from US20210380703A1.

B1: 375_D01 (antibody, V domains shown)
VH: EVQLLESGGGLVQPGGSLRLSCAASGFTFSSYSMNWVRQAPGKGLEWVSGINYNGGYTGYADSVKGRFTISRDNSKNTLYLQMNSLRAEDTAVYYCARGANWHDTALDYWGQGTLVTVSS
VL: DIQMTQSPSSLSASVGDRVTITCRASQSILTYLNWYQQKPGKAPKLVIYAATSRASGVPSRFSGSGSGTDFTLTISSLQPEDFATYYCQQSYETPLTFGGGTKVEIK
B2: 376_C04 (antibody, V domains shown)
VH: B1 VH with S33G, G50N
VL: B1 VL with T31S, L33V, V47L, A51V, A55H, E93D, T94N
B3: 369_H03 (antibody, V domains shown)
VH: B1 VH with N35H, S49A, G50S, G55S, T58K, G59S, G99A
VL: B1 VL with L30V, T31S, V47L, A51T, E93D
B4: 376_E11 (antibody, V domains shown)
VH: B1 VH with G59S
VL: B1 VL with L33V, T94L
B5: 375_G04 (antibody, V domains shown)
VH: B1 VH with S33G, S49A, G50S, G55S, A106H
VL: B1 VL with L30V, T31S, L33V, V47L, R54L, E93D, T94S
B6: 375_D10 (antibody, V domains shown)
VH: B1 VH with S49A, G59S
VL: B1 VL with L33V, V47L, Y92D, E93D, T94S
B7: 375_H05 (antibody, V domains shown)
VH: B1 VH with G50N
VL: B1 VL with T31S, L33V, V47L, E93D
B8: 369_G10 (antibody, V domains shown)
VH: B1 VH with S33G, N35H, S49A, G50S, G59S, G99A
VL: B1 VL with T31S, E93D, T94S
B9: 371_A04 (antibody, V domains shown)
VH: B1 VH with S30D, S33G, G50S, G55S, G99A
VL: B1 VL with V47L, A51V, E93D
B10: 368_D09 (antibody, V domains shown)
VH: B1 VH with S30D, S33G, N35H, S49A, G55S, T58K, G59S, G99A, A106H
VL: B1 VL with L30V, T31S, L33V, V47L, R54L, E93D, T94N
B11: 371_D12 (antibody, V domains shown)
VH: B1 VH with S30D, S33G, T58K, G59S, G99A
VL: B1 VL with T31S, V47L, T94L
B12: 371_A09 (antibody, V domains shown)
VH: B1 VH with S33G, T58K, G59S, G99A
VL: B1 VL with L30V, L33V, E93D, T94S
B13: 376_E02 (antibody, V domains shown)
VH: B1 VH with S49A, T58K
VL: B1 VL with T31S, L33V, A55H, Y92D, E93N
B14: 371_H02 (antibody, V domains shown)
VH: B1 VH with S30D, S31D, T58K, G59S, G99A, A106H
VL: B1 VL with L30I, T31S, R54L, T94N
B15: 375_F02 (antibody, V domains shown)
VH: B1 VH with S49A, G50S, G55S, G59S, A106H
VL: B1 VL with T31S, V47L, E93D, T94S
B16: 375_E06 (antibody, V domains shown)
VH: B1 VH with T58K, G59S
VL: B1 VL with T31S, E93D, T94S
B17: 375_F08 (antibody, V domains shown)
VH: B1 VH with S33G, G50S, G55S, T58K, G59S, A106H
VL: B1 VL with T31S, V47L, A55H, E93D, T94N
B18: 370_B01 (antibody, V domains shown)
VH: B1 VH with S30D, S31D, S33G, N35H, T58K, G59S, G99A
VL: B1 VL with T31S, L33V, V47L, A50V, T52S, E93S, T94L
B19: 368_B11 (antibody, V domains shown)
VH: B1 VH with S30D, S33G, N35H, T58K, G59S, G99A, A106H
VL: B1 VL with T31S, V47L, T52S, R54L, A55Q, E93D, T94S
B20: 375_E10 (antibody, V domains shown)
VH: B1 VH with G59S
VL: B1 VL with T31S, E93D, T94N
B21: 368_C09 (antibody, V domains shown)
VH: B1 VH with N35H, G50N, G99A, A106H
VL: B1 VL with L33V, V47L, R54L, E93D, T94L
B22: 368_B10 (antibody, V domains shown)
VH: B1 VH with S30D, S33G, N35H, S49A, G50S, G59S, G99A
VL: B1 VL with Y92D, T94L
B23: 371_D07 (antibody, V domains shown)
VH: B1 VH with S30D, S31D, S33G, S49A, G50N, T58K, G99A, A106H
VL: B1 VL with T94L
B24: 369_B03 (antibody, V domains shown)
VH: B1 VH with S33G, N35H, S49A, G59S, G99A
VL: B1 VL with L33V, R54L, T94L
B25: 375_G05 (antibody, V domains shown)
VH: B1 VH with S49A, G59S
VL: B1 VL with L30V, T31S, V47L, A51V, E93D, T94S
B26: 365_B04 (antibody, V domains shown)
VH: B1 VH with S33G, N35H, S49A, G50S, G55S, G59S, G99A
VL: B1 VL with V47L, A55H, Y92D, T94S
B27: 370_H08 (antibody, V domains shown)
VH: B1 VH with S33G, N35H, S49A, G50S, G59S, G99A, A106H
VL: B1 VL with T31S, L33V, V47L, A55H, E93S, T94L
B28: 375_F07 (antibody, V domains shown)
VH: B1 VH with S31D, G50N
VL: B1 VL with T31S, V47L, E93D, T94S
B29: 365_B10 (antibody, V domains shown)
VH: B1 VH with S30D, S31D, N35H, S49A, G50S, G55S, T58K, G99A
VL: B1 VL with T31R, V47L, Y92D, E93N, T94L
B30: 368_F10 (antibody, V domains shown)
VH: B1 VH with S33G, S49A, G55S, G59S, G99A, A106H
VL: B1 VL with L30V, T31S, L33V, V47L, E93D
B31: 375_E03 (antibody, V domains shown)
VH: B1 VH with S31D, S49A, G50N, A106H
VL: B1 VL with R54L, E93D, T94N
B32: 376_B03 (antibody, V domains shown)
VH: B1 VH with S49A, G55S, T58K, G59S
VL: B1 VL with T31S, L33V, A51V, A55H, E93D, T94S

Changes are numbered by the printed parent chain.

The assay concerns the target human Fc (human). The experiment in a line: ELISA, negative control.
Consider B1, for which the optical density came to 0.182 OD.

Molecule B2 came in with an optical density of 0.219 OD.

As to B3, the optical density was determined as 0.498 OD.

B4 showed an optical density of 0.268 OD.

With B5, the optical density was found to be 0.161 OD.

Turning to B6, the optical density turned out to be 0.228 OD.

B7 showed an optical density of 0.167 OD.

Regarding B8, the optical density stood at 0.423 OD.

For B9, the optical density was determined as 0.315 OD.

Turning to B10, the optical density was found to be 0.212 OD.

Take B11: the optical density was determined as 0.337 OD.

In the case of B12, the optical density amounted to 0.302 OD.

Regarding B13, the optical density was 0.222 OD.

B14 displayed an optical density of 0.388 OD.

With B15, the optical density worked out at 0.205 OD.

Take B16: the optical density was 0.188 OD.

The molecule B17 came in with an optical density of 0.201 OD.

In the case of B18, the optical density worked out at 0.47 OD.

On to B19, for which the optical density amounted to 0.286 OD.

The molecule B20 registered an optical density of 0.187 OD.

Molecule B21 came in with an optical density of 0.341 OD.

B22 came in with an optical density of 0.412 OD.

In the case of B23, the optical density amounted to 0.299 OD.

Regarding B24, the optical density was found to be 0.62 OD.

Molecule B25 had an optical density of 0.21 OD.

Consider B26, for which the optical density was found to be 0.271 OD.

Turning to B27, the optical density was found to be 0.538 OD.

B28 registered an optical density of 0.172 OD.

In turn, B29 registered an optical density of 0.322 OD.

Molecule B30 showed an optical density of 0.328 OD.

Turning to B31, the optical density was found to be 0.181 OD.

Turning to B32, the optical density was 0.253 OD.
